Assay results as given in patent publication US20180311371A1 (Hoffmann-La Roche, published 2018).

Assays:
[1] = biological target: T1, human TPBG (trophoblast glycoprotein), full length, cell surface expressed (human, UniProt Q13641 32-420); test: cell-based or functional assay
T1 sequence: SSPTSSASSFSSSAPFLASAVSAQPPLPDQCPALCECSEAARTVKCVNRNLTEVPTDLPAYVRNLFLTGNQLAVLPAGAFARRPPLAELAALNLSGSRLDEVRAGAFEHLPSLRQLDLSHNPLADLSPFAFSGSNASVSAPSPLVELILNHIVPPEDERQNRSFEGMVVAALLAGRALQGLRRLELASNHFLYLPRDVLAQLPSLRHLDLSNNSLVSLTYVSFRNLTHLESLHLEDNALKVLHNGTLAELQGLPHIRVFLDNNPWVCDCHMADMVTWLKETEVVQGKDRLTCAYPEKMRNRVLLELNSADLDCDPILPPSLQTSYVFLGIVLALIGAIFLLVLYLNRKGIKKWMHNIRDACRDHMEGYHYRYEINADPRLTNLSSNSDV

[2] = biological target: T1, human TPBG (trophoblast glycoprotein), …; test: flow cytometry on SW620 clone 4 cells; ratio of MFI; replicate 1
[3] = biological target: T2, huTPBG (recombinant human TPBG immobilised on the Biacore chip) (human, UniProt Q13641 32-355, limits assumed); test: SPR Biacore T200; huTPBG amine-coupled, Fab injected
T2 construct: also called human TPBG antigen
T2 sequence: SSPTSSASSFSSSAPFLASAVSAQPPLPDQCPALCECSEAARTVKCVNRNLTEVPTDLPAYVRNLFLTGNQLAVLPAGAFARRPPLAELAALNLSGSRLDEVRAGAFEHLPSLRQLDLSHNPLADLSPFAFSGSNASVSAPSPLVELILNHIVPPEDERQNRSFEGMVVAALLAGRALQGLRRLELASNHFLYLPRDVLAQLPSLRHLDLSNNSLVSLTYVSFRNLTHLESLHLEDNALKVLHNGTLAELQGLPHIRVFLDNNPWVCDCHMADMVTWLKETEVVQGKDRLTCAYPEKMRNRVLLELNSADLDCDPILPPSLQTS

[4] = biological target: T3, human TPBG extracellular domain, His6Avi, biotinylated (human, biotinylated); test: ELISA; biotinylated TPBG-AviHis on streptavidin plate; Fab titrated from 2 µg/ml
T3 construct: also called huTPBG; human TPBG-AviHis
T3 chain: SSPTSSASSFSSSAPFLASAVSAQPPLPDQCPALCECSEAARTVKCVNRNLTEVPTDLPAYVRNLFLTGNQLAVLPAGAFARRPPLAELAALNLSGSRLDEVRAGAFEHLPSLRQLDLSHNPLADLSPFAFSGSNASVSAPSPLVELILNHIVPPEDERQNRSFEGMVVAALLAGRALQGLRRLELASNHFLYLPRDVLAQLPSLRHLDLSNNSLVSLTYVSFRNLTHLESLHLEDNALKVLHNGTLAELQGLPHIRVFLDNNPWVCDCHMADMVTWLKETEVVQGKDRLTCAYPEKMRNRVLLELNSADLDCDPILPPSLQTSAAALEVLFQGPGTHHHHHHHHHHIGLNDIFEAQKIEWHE

[5] = biological target: T1, human TPBG (trophoblast glycoprotein), …; test: flow cytometry on SW620 clone 4 cells; ratio of MFI; replicate 2
[6] = biological target: T1, human TPBG (trophoblast glycoprotein), …; test: cell ELISA on MCF7 cells; titrated from 5 µg/ml
[7] = biological target: T1, human TPBG (trophoblast glycoprotein), …; test: cell-based or functional assay; remark: listed apart in the source
[8] = biological target: T4, recombinant extracellular domain of minipig TPBG (Biacore analyte) (minipig); test: SPR Biacore T200; Fab captured by anti-huFab, minipig TPBG injected
T4 chain: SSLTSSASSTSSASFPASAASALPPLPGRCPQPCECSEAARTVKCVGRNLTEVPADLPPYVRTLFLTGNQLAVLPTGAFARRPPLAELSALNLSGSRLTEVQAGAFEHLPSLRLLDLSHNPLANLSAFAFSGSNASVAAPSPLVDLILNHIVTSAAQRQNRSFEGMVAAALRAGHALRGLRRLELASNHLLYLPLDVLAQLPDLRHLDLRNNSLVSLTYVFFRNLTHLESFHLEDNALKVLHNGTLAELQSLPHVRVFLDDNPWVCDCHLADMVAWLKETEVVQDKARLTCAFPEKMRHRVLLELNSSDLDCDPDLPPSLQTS

[9] = biological target: T5, minipig TPBG, full length, cell surface expressed on CHO-K1 cells (minipig); test: cell-based or functional assay
T5 chain: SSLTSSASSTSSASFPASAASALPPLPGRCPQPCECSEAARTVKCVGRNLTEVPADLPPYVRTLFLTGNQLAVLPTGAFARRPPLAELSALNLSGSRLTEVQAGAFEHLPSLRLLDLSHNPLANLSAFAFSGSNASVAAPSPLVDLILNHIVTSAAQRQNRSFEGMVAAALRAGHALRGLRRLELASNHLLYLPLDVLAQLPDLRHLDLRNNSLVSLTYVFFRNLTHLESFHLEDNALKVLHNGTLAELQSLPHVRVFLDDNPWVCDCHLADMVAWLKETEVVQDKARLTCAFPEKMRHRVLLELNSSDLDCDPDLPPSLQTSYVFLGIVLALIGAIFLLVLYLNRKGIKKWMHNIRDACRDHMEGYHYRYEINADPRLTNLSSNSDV

[10] = biological target: T1, human TPBG (trophoblast glycoprotein), …; test: cell-based or functional assay; remark: listed apart in the source
[11] = biological target: T1, human TPBG (trophoblast glycoprotein), …; test: cell-based or functional assay; remark: listed apart in the source

B1: anti-TPBG antibody 091, Fab fragment (Fab, V domains shown)
VH: EVHLLESGGGLVHPGGSLRLSCAASGFTFRSDAMHWVRQAPGKGLEWVSGVSGSGGSPYYADSVKGRFTISRDDSKTTLYLQMNSLRAEDTAVYYCATGGSIAGSYYYYPMDVWGQGTTVTVSS
VL: DIQMTQSPSSLSASVGDRVTITCQASQDISNYLNWYQQKPGKAPKLLIYAASTLQIGVPSRFSGSGSGTDFTFTISSLQPEDFATYYCQQANSFPLTFGGGTKVEIK
notes: also called Fab2
EC50 cytotoxicity, Fab-PE sandwich construct, H1975, replicate 1 [1]: 0.166 nM | EC50 cytotoxicity, Fab-PE sandwich construct, H1975, replicate 2 [1]: 0.129 nM | EC50 cytotoxicity, Fab-PE sandwich construct, H1975, replicate 3 [1]: 0.182 nM | Fold change pH 7.2 vs pH 5.5 [2]: 0.9 fold | Kd [3]: 0.0558 nM | koff [3]: 2.72e-05 s⁻¹ | kon [3]: 487000 M⁻¹ s⁻¹ | EC50 [4]: 0.0277 µg/mL | Fold change pH 7.2 vs pH 5.5 [5]: 1 fold | EC50 [6]: 0.014 µg/mL | internalization after 0.5 h, MCF7 cells [7]: 16% | internalization after 1.0 h, MCF7 cells [7]: 33% | internalization after 2.0 h, MCF7 cells [7]: 42% | Kd [8]: 1.74 nM | koff [8]: 0.000205 s⁻¹ | kon [8]: 118000 M⁻¹ s⁻¹ | EC50 cytotoxicity, Fab + anti-kappa-Fab-PE, CHO-K1/minipig TPBG, replicate 1 [9]: 1.05 nM | EC50 cytotoxicity, Fab + anti-kappa-Fab-PE, CHO-K1/minipig TPBG, replicate 2 [9]: 1.2 nM | EC50 cytotoxicity, Fab + anti-kappa-Fab-PE, CHO-K1/human TPBG, replicate 1 [10]: 0.23 nM | EC50 cytotoxicity, Fab + anti-kappa-Fab-PE, CHO-K1/human TPBG, replicate 2 [10]: 0.24 nM | EC50 cytotoxicity, Fab-PE sandwich construct, MCF7 [11]: 0.414 nM | X-fold higher potency compared to TPBG(H8)PE, MCF7, first experiment [11]: 3 fold | X-fold higher potency compared to TPBG(H8)PE, MCF7, second experiment [11]: 2.7 fold
